Source: publication PMC9516341

Molecular target: Flag-tagged ARNO (p3XFLAG-2-mCytohesin-2)
Experiment: co-immunoprecipitation (anti-FLAG M2 IP of FLAG-ARNO, immunoblot for FE65, quantified)
Settings: transfected cell lysate; three independent experiments; unpaired t-test, *p < 0.001; parent: 1

ratio to parent: 0.34
Substance: Myc-tagged FE65 (from UniProt O00213) R605A
